Assay results published in article PMC6430397, “The pharmacological properties of 3-arm or 4-arm DOTA constructs for conjugation to α-melanocyte-stimulating hormone analogues for melanoma imaging” (PLoS ONE, 2019).

Tests used:
[1] = Partition coefficient, n-octanol / 0.1 M phosphate buffer; format: physicochemical; details: pH 7.4
Protocol: The partition coefficients of ^111In-labeled 3-arm and 4-arm DOTA-α-MSH were measured using 2.0 mL n-octanol as the organic phase and 2.0 mL 0.l M phosphate buffer as the aqueous phase (pH 7.4 for plasma). N-octanol and the buffer were pre-mixed twice using a mechanical mixer for 1 min at room temperature. Then, 20 µL radioactive sample were added and mixed twice using a mechanical mixer for 1 min at room temperature. The radioactivity of 200 uL of each phase was measured after centrifugation. Calculation of log (n-octanol/0.l M phosphate buffer) was performed.

[2] = Biological distribution in B16-F1 melanoma-bearing mice; format: in vivo, mouse; details: male, C57BL6, mouse, in vivo, iv, 37 kBq/mouse, total radioactivity, Biological distribution
Protocol: C57BL6 male mice (5 weeks old) were transplanted with B16-F1 cells (5 × 10^5 cells/100 μL) into the thigh of the mice. […] The mice were housed and continuously monitored each day for 2 weeks in a 12-hour light/12-hour dark cycle with free access to food and water. The tumor size reached 8.7 ± 2.8 mm at 2 weeks after transplant of cells. Two mice with tumor sizes of 13 and 15 mm were excluded from our experiments. Mice with a tumor size <10 mm were fasted with no food overnight with water supplied ad libitum before experiments.
For biological distribution studies, B16-F1-bearing mice were administered ^111In-labeled 3-arm or 4-arm DOTA-α-MSH via the tail vein (37 kBq/mouse). At 10, 30, 60, 120, and 180 min after injection, the mice were euthanized under isoflurane (n = 3 per time point), and the following tissues were collected: brain, lung, heart, stomach, liver, small intestine, large intestine, kidney, blood, muscle, and B16-F1 melanoma. Tissues were weighed, and radioactivity was quantified using an automated γ-ray counter to calculate the percent injected dose (%ID) or percent injected dose per gram of tissue (%ID/g).
For SPECT imaging, ^111In-labeled 3-arm or 4-arm DOTA-α-MSH was injected into the tail vein of four B16-F1-bearing mice in total (37 MBq/mouse). For SPECT imaging, acquisition was started at 10 min after injection and continued every 10 min for 180 min. The data were reconstructed using the ordered subset expectation maximization method with 16 subsets and six iterations including no scatter and attenuation correction. The voxel size was set to 0.8×0.8×0.8 mm. Post-reconstruction smoothing filtering was applied using a 1.0-mm Gaussian filter. […] In these images, three to five regions of interest were placed over the kidney, muscle, and B16-F1 melanoma in which accumulation could be seen, and the time activity curve of each was obtained as the %ID/g.

[3] = target: T1, MC1-R (Mus musculus, UniProt Q01727); details: endogenous ligand; cited from earlier work
T1 construct: host or cells: B16-F1 mouse melanoma cells
T1 sequence (Q01727 whole entry): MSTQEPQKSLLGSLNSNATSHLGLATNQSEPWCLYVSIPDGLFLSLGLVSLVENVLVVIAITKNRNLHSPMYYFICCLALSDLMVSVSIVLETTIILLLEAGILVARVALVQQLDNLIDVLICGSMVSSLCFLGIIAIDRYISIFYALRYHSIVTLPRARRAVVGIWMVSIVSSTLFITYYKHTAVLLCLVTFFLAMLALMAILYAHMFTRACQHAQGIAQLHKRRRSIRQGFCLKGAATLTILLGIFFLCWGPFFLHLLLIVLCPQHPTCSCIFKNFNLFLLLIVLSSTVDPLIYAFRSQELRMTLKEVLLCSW
Description: The melanocortin 1 receptor (MC1-R) is one of the most targeted melanoma antigens and belongs to the melanocortin family of G protein-coupled receptors, which consists of five receptor subtypes, MC1-R to MC5-R. MC1-R is expressed in nearly all primary and metastatic melanomas and 95% of uveal melanomas. MC1-R is an attractive receptor for molecular-targeted imaging and radionuclide therapy of melanoma. α-melanocyte-stimulating hormone (α-MSH), a tridecapeptide, is an endogenous ligand for the melanocortin family of receptors, with subnanomolar binding affinity to MC1-R [5].

`CSCC[C@H](NC(=O)[C@H](CO)NC(=O)[C@H](Cc1ccc(O)cc1)NC(=O)[C@H](CO)NC(C)=O)C(=O)N[C@@H](CCC(=O)O)C(=O)N[C@@H](Cc1c[nH]cn1)C(=O)N[C@@H](Cc1ccccc1)C(=O)N[C@@H](CCCNC(=N)N)C(=O)N[C@@H](Cc1c[nH]c2ccccc12)C(=O)NCC(=O)N[C@@H](CCCCNC(=O)CN1CCN(CC(=O)O)CCN(CC(=O)O)CCN(CC(=O)O)CC1)C(=O)N1CCC[C@H]1C(=O)N[C@H](C(=O)O)C(C)C` [^111In-labeled 3-arm DOTA-α-MSH, metal not drawn] gave a logD [1] of -0.28 ± 0.03, a tissue uptake at 10 min ([2]; Blood) of 3.11 %ID/g and a tissue uptake at 0.5 h ([2]; Blood) of 1.91 %ID/g. The tissue uptake at 1 h ([2]; Blood) was 0.89 %ID/g, the tissue uptake at 2 h ([2]; Blood) was 0.21 %ID/g and the tissue uptake at 3 h ([2]; Blood) was 0.05 %ID/g. It also gave a tissue uptake at 10 min ([2]; Brain) of 0.04 %ID/g, a tissue uptake at 0.5 h ([2]; Brain) of 0.05 %ID/g and a tissue uptake at 1 h ([2]; Brain) of 0.05 %ID/g. For the same compound, the tissue uptake at 2 h ([2]; Brain) was 0.03 %ID/g, the tissue uptake at 3 h ([2]; Brain) was 0.02 %ID/g and the tissue uptake at 10 min ([2]; Heart) was 0.74 %ID/g. The tissue uptake at 0.5 h ([2]; Heart) was 0.66 %ID/g, the tissue uptake at 1 h ([2]; Heart) was 0.46 %ID/g and the tissue uptake at 2 h ([2]; Heart) was 0.14 %ID/g. It also gave a tissue uptake at 3 h ([2]; Heart) of 0.06 %ID/g, a tissue uptake at 10 min ([2]; Kidney) of 23.6 %ID/g and a tissue uptake at 0.5 h ([2]; Kidney) of 18.4 %ID/g. The tissue uptake at 1 h ([2]; Kidney) was 11.9 %ID/g, the tissue uptake at 2 h ([2]; Kidney) was 8.42 %ID/g and the tissue uptake at 3 h ([2]; Kidney) was 7.07 %ID/g. The tissue uptake dose at 10 min ([2]; Large intestine) was 0.03 %ID, the tissue uptake dose at 0.5 h ([2]; Large intestine) was 0.08 %ID and the tissue uptake dose at 1 h ([2]; Large intestine) was 0.09 %ID. It also gave a tissue uptake dose at 2 h ([2]; Large intestine) of 0.05 %ID, a tissue uptake dose at 3 h ([2]; Large intestine) of 0.04 %ID and a tissue uptake at 10 min ([2]; Liver) of 2.3 %ID/g. It also gave a tissue uptake at 0.5 h ([2]; Liver) of 1.15 %ID/g, a tissue uptake at 1 h ([2]; Liver) of 1.12 %ID/g and a tissue uptake at 2 h ([2]; Liver) of 1.23 %ID/g. It also gave a tissue uptake at 3 h ([2]; Liver) of 0.72 %ID/g, a tissue uptake at 10 min ([2]; Lung) of 0.51 %ID/g and a tissue uptake at 0.5 h ([2]; Lung) of 0.66 %ID/g. It also gave a tissue uptake at 1 h ([2]; Lung) of 0.31 %ID/g, a tissue uptake at 2 h ([2]; Lung) of 0.27 %ID/g and a tissue uptake at 3 h ([2]; Lung) of 0.1 %ID/g. For the same compound, the tissue uptake at 10 min ([2]; Melanoma) was 1.71 %ID/g, the tissue uptake at 0.5 h ([2]; Melanoma) was 1.81 %ID/g and the tissue uptake at 1 h ([2]; Melanoma) was 2.49 %ID/g. The tissue uptake at 2 h ([2]; Melanoma) was 3.36 %ID/g, the tissue uptake at 3 h ([2]; Melanoma) was 3.51 %ID/g and the tissue uptake at 10 min ([2]; Muscle) was 0.21 %ID/g. It also gave a tissue uptake at 0.5 h ([2]; Muscle) of 0.2 %ID/g, a tissue uptake at 1 h ([2]; Muscle) of 0.15 %ID/g and a tissue uptake at 2 h ([2]; Muscle) of 0.09 %ID/g. It also gave a tissue uptake at 3 h ([2]; Muscle) of 0.05 %ID/g, a tissue uptake dose at 10 min ([2]; Small intestine) of 0.04 %ID and a tissue uptake dose at 0.5 h ([2]; Small intestine) of 0.08 %ID. It also gave a tissue uptake dose at 1 h ([2]; Small intestine) of 0.09 %ID, a tissue uptake dose at 2 h ([2]; Small intestine) of 0.12 %ID and a tissue uptake dose at 3 h ([2]; Small intestine) of 0.1 %ID. For the same compound, the tissue uptake dose at 10 min ([2]; Stomach) was 0.06 %ID, the tissue uptake dose at 0.5 h ([2]; Stomach) was 0.1 %ID and the tissue uptake dose at 1 h ([2]; Stomach) was 0.12 %ID. The tissue uptake dose at 2 h ([2]; Stomach) was 0.11 %ID and the tissue uptake dose at 3 h ([2]; Stomach) was 0.12 %ID.

In the case of “α-melanocyte-stimulating hormone [α-MSH]”, the “binding affinity to MC1-R” value [3] is listed as “subnanomolar”.
